Several values for one entry are separate records, joined by “and”; a condition that tells them apart may be missing. Identical values can stand only once. Where no end group is shown, it is not given here. [ ]: non-standard residue; d: D form. The star is where a group is joined. Biotin = O=C1N[C@H]2[C@H](CS[C@H]2CCCCC(=O)*)N1; AEEA = NCCOCCOCC(=O)O
Columns and labels:
IGF-1R on SW480 cells [1] = target: T1, IGF-1R on SW480 cells (UniProt P08069 31-1367, limits assumed); test: cell-based or functional assay
[2] = target: T2, human insulin-like growth factor-1 receptor (HIGF-1R) (human, UniProt P08069 31-1367); test: 125I-IGF-1 displacement, PEG-assay
T2 construct: Detergent-solubilised receptor purified on WGA-agarose; also called HIGFIR
Protocol: IGF-1R affinity studies were generally performed as follows. […] The day before harvest cells were moved to serum free conditions and before harvest the cells were rinsed with and ice cold PBS solution. The cells were solubilized in cold lysis buffer (4 ml lysis buffer/1×10⁸ cells); vortexed vigorously to lysis in lysis buffer (50 mM Hepes (pH 8.0); 150 mM NaCl; 1% Triton X-100; 2 mM EDTA; 10 μg/mlaprotinin; 0.5 mM PEFABLOC (Roche)); and the lysate centrifuged at 4° C., 20000 rpm, for 15 minutes. […] In some cases, human insulin receptor (HIR) affinity for select test peptides was similarly measured.

[3] = target: T2, human insulin-like growth factor-1 …; test: 125I-IGF-1 displacement, SPA-assay
Description: In certain cases, a scintillation proximity assay (SPA assay) was used to determine IGF-1R affinity.

IGF-1R on SW480 cells [4] = target: T1, IGF-1R on SW480 cells; test: cell-based or functional assay; remark: listed apart in the source
[5] = target: IGF-1R on MCF-7 cells (MCF-7S8, MCF7) (human, UniProt P08069 31-1367); test: cell-based or functional assay
IGF-1R on L6 cells = test: cell-based or functional assay

T2 sequence (P08069 31-1367 limits assumed): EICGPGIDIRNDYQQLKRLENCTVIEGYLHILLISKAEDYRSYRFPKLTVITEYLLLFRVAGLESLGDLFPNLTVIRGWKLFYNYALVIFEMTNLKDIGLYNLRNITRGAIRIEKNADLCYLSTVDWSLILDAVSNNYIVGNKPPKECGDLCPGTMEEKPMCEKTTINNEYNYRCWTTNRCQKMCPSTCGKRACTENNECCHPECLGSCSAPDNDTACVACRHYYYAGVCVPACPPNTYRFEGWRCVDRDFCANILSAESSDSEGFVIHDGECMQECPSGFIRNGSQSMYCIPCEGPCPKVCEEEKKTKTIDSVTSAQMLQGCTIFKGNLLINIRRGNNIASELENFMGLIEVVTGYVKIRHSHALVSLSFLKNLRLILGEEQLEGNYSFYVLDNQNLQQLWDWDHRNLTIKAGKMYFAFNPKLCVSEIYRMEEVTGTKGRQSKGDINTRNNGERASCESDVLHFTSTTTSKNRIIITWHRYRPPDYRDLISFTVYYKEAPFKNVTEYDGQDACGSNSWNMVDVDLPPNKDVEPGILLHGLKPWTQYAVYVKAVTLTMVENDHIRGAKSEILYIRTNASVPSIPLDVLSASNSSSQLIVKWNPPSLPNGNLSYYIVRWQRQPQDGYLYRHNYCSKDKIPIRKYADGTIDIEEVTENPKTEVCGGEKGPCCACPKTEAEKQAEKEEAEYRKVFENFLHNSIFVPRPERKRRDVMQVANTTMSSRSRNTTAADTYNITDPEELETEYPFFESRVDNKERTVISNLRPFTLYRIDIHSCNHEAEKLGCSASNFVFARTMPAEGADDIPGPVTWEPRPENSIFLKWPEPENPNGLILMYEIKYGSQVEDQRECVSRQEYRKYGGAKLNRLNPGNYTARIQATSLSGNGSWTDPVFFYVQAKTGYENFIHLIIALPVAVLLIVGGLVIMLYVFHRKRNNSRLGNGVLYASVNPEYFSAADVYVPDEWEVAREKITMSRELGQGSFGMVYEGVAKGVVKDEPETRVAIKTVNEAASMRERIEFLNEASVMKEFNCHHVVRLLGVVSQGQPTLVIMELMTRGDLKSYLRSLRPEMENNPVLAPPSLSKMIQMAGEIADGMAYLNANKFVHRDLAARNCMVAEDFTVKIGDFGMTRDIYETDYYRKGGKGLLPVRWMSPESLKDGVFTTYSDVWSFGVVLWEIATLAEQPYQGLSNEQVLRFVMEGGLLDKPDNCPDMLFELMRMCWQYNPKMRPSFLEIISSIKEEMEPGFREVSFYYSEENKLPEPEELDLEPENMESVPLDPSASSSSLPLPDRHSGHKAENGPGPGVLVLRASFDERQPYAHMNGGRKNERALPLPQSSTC
T1 sequence (P08069 31-1367 limits assumed): as above
Sequence of IGF-1R on MCF-7 cells (MCF-7S8, MCF7) (P08069 31-1367): as the sequence (P08069 31-1367 limits assumed) above

With QFYGCLLDLSLGVPSFGWKKKCITA [F392] the “IC50, IGF-1 (10 nM)-induced proliferation of SW480 cells, exp. 13262-025” value (IGF-1R on SW480 cells [1]) was > 10000 nM and the “IC50, IGF-1 (10 nM)-induced proliferation of SW480 cells, exp. 13262-027” value (IGF-1R on SW480 cells [1]) was 1000 nM.

VEGRGLFYDLLRQLLARRQNG [F158] gave a Kd [2] of 900 nM.

SQDQVGASLGSAISGRGGLSNFYSCLTSLATDTTRPSRRPWERCR [F397] gave a Kd [3] of 28000 nM.

RQWDCRGRPCGDAESFYEWFDQQRS [F264] was tested, and the “IC50 in SW480 (M) in presence of IGF-1” value (IGF-1R on SW480 cells [4]) was > 1e-05 M and the “IC50 in SW480 (M), peptide alone” value (IGF-1R on SW480 cells [4]) was > 1e-05 M.

With EGRVDDAFYEWFERQLGE [F213, listing 1 of 2 here] the “IC50 in SW480 (M) in presence of IGF-1” value (IGF-1R on SW480 cells [4]) was 2e-06 M and the “IC50 in MCF-7S8, in presence of IGF-1” value [5] was 2000 nM.

Binder ESYGDCRDRPCGDAPNFYDWFVQQASE [F270] has a Kd [3] of 7000 nM.

In the case of SFYSCLESLVKRPTERSRGQWVGCR [F320], the “IC50, IGF-1 (10 nM)-induced proliferation of SW480 cells, exp. 13262-014” value (IGF-1R on SW480 cells [1]) is reported as > 10000 nM, the “IC50, down regulation of 3 nM IGF-1 stimulation to basal level, IGF-IR, L6 cells” value (IGF-1R on L6 cells) is reported as 2000 nM and > 1000 nM and the “IC50, down regulation of 3 nM IGF-1 stimulation to basal level, IRS-1, L6 cells” value (shortened to “IC50, down regulation … IRS-1, L6 cells”) (IGF-1R on L6 cells) is reported as > 2000 nM. For the same binder, the “IC50, down regulation of 3 nM IGF-1 stimulation to basal level, MAPK42, L6 cells” value (“IC50, down regulation … MAPK42, L6 cells” for short) (IGF-1R on L6 cells) was 1000 nM and the “IC50, down regulation of 3 nM IGF-1 stimulation to basal level, MAPK44, L6 cells” value (“IC50, down regulation … MAPK44, L6 cells” for short) (IGF-1R on L6 cells) was 1000 nM.

In the case of EISFRCQLFVLAGMHPCPVDVGGEGFE [F170], the “IC50 in MCF-7S8, in presence of IGF-1” value [5] is reported as 2000 nM.

SFYSCLESLVNGPAEKSRGQWDGCR [F249] was tested, and the “IC50 in SW480 (M) in presence of IGF-1” value (IGF-1R on SW480 cells [4]) was > 1e-05 M and the “IC50 in SW480 (M), peptide alone” value (IGF-1R on SW480 cells [4]) was > 1e-05 M.

IFYSCLASLLHGGPQRNTGPWERCRR [F141] was tested, and the “IC50, IGF-1 (10 nM)-induced proliferation of SW480 cells, exp. 13262-015” value (“IC50 … exp. 13262-015” for short) (IGF-1R on SW480 cells [1]) was > 10000 nM.

For Ac-SFYSCLESLVQGPAEKSRGQWEGCRK (cysteine pairing not given here, Second row labelled F365) [F365 (row r332, SEQ ID NO 200)], the Kd [3] was 260 nM.

For KLHNLMFYYGLQRLVWGAGLG [F159], the Kd [2] was 5000 nM.

With VQDDCRGRPCGDADSFYEWFDQGYGSSSRRAPQT [F404] the Kd [3] was 62000 nM.

GVRAMSFYDALVSVLGLGPSG [F157] gave a Kd [2] of 2000 nM.

For Ac-SFYSCLESLVTGPKERSRGQWEGCRR (cysteine pairing not given here) [F306], the Kd [3] was 100 nM.

With {Biotin-AEEA}-SFYSCLESLVQGPAEKSRGQWEGCRK (cysteine pairing not given here) [F414] the Kd [3] was 65000 nM.

In the case of ESFYSCLASLVAGTPWPKGGSWERCREE [F230], the Kd [2] is reported as 20000 nM.

For EGRVDDAFYEWFERQLGE [F213, listing 2 of 2 here], the Kd [2] was 800 nM.

Binder VQDDCRGRPCGDADSFYEWFDQQAS [F263, listing 1 of 2 here] has a Kd [3] of 2500 nM.

B1: F119 (peptide)
peptide: XGSLDESFYDWFERQLGKK
modifications: N-terminal Lig (lysine with a 2-aminohydroxyacetyl group on the epsilon amino group)
B1 was tested, and the Kd [2] was 1000 nM.

B2: F191 (peptide)
peptide: EEGVDEVRAWLWCQISGLGCESEEX
modifications: C-terminal Lig (lysine with a 2-aminohydroxyacetyl group on the epsilon amino group)
B2 gave a Kd [2] of 54000 nM.

In the case of SFYSCLESLVNGPAEKSRGQWDGCRK [F250, listing 1 of 2 here], the “IC50 in SW480 (M) in presence of IGF-1” value (IGF-1R on SW480 cells [4]) is reported as 2e-06 M and 1e-06 M and the “IC50 in MCF-7S8, in presence of IGF-1” value [5] is reported as 2000 nM.

B3: F194 (peptide)
peptide: XEESFYSCLESLVNGGAERSDGQWEGCREE
modifications: N-terminal Lig (lysine with a 2-aminohydroxyacetyl group on the epsilon amino group)
Binder B3 has a Kd [3] of 55000 nM.

ELQGFCELLATVTGVTGLGCLDYQPIE [F202] was tested, and the “IC50 in SW480 (M) in presence of IGF-1” value (IGF-1R on SW480 cells [4]) was > 1e-05 M.

For SFYSCLESLVSGPAEKSHRRWEACR [F321], the “IC50, IGF-1 (10 nM)-induced proliferation of SW480 cells, exp. 13262-014” value (IGF-1R on SW480 cells [1]) was > 10000 nM.

For SFYSCLESLVNGPAEKFRGRRDGCR [F380], the Kd [3] was 46000 nM.

In the case of DFYGCLLDLSLGVPSLGWRRRCIT [F428], the “IC50, IGF-1 (10 nM)-induced proliferation of SW480 cells, exp. 13717-019” value (IGF-1R on SW480 cells [1]) is reported as 1000 nM and the “IC50, IGF-1 (10 nM)-induced proliferation of SW480 cells, exp. 13717-027” value (IGF-1R on SW480 cells [1]) is reported as 1000 nM.

ESFYSCLESLVNGPAEKSRGQWDGCRE [F215] showed a Kd [2] of 82000 nM.

Binder EDHRLCGTDEYLMQDLFVRGLCRLIWE [F164] has a Kd [2] of 4000 nM.

For ESFYSCLASLVTGIPRSNSGTQVFCREE [F227], the “IC50 … exp. 13262-015” value (IGF-1R on SW480 cells [1]) was > 10000 nM.

With VQDDCRGRPCGDADSFYEWFDQQAGYGSSSRRAPQT [F364] the “IC50 … exp. 13262-015” value (IGF-1R on SW480 cells [1]) was > 10000 nM.

Binder SFYSCLESLVNGPAEKSRGQWDGCRK [F250, listing 2 of 2 here] has a Kd [2] of 42000 nM.

In the case of DDDKGSLDESFYDWFERQLGTFYSCLASLLTGTPQPNRGPWERCR [F110], the Kd [2] is reported as 1000 nM.

Work on ELSFACLLSQLSGVVLPDCLLGEDE [F201] yielded a Kd [2] of 43000 nM.

For VQDDCRGRPCGDADSFYEWFDQQAS [F263, listing 2 of 2 here], the “IC50 in SW480 (M) in presence of IGF-1” value (IGF-1R on SW480 cells [4]) was > 1e-06 M and the “IC50 in SW480 (M), peptide alone” value (IGF-1R on SW480 cells [4]) was > 1e-06 M.

With SFYSCLESLVTGPAEKSRGQWEGCRK [F292] the “IC50 in SW480 (M) in presence of IGF-1” value (IGF-1R on SW480 cells [4]) was 1e-07 M, the “IC50 in SW480 (M), peptide alone” value (IGF-1R on SW480 cells [4]) was 1e-06 M and the “IC50 in MCF-7S8, in presence of IGF-1” value [5] was 1000 nM.

Work on EWLEQERAWIWCEIQGSGCRAE [F216] yielded a Kd [2] of 10000 nM.

EGRVDDAFYEWFERQLGEELCQSWGVRIGWLAGLCPE [F410] was tested, and the Kd [3] was 37000 nM.

RQFYGCLLDLSLGVPSFGWRRRCITAR [F407] showed a Kd [3] of 69000 nM.

For QFYGCLLDLSLGVPSFGWRRRCITA [F138], the “IC50 in MCF-7S8, in presence of IGF-1” value [5] was 500 nM, the “IC50, down regulation … IRS-1, L6 cells” value (IGF-1R on L6 cells) was 300 nM and the “IC50, down regulation … MAPK42, L6 cells” value (IGF-1R on L6 cells) was 300 nM. For the same binder, the “IC50, down regulation … MAPK44, L6 cells” value (IGF-1R on L6 cells) was 300 nM and 100 nM and the “IC50, down regulation of 3 nM IGF-1 stimulation to basal level, PKB/Akt, L6 cells” value (IGF-1R on L6 cells) was 300 nM and 100 nM.

In the case of DFYGCLLDLSLGVPSLGWRRRCITA [F429], the “IC50, IGF-1 (10 nM)-induced proliferation of SW480 cells, exp. 13717-019” value (IGF-1R on SW480 cells [1]) is reported as 500 nM, the “IC50, IGF-1 (10 nM)-induced proliferation of SW480 cells, exp. 13717-027” value (IGF-1R on SW480 cells [1]) is reported as 1000 nM and the “IC50, down regulation of 3 nM IGF-1 stimulation to basal level, IGF-IR, L6 cells” value (IGF-1R on L6 cells) is reported as 50 nM. For the same binder, the “IC50, down regulation … IRS-1, L6 cells” value (IGF-1R on L6 cells) was 40 nM, the “IC50, down regulation … MAPK42, L6 cells” value (IGF-1R on L6 cells) was 300 nM and the “IC50, down regulation … MAPK44, L6 cells” value (IGF-1R on L6 cells) was 100 nM. The “IC50, down regulation of 3 nM IGF-1 stimulation to basal level, PKB/Akt, L6 cells” value (IGF-1R on L6 cells) was 100 nM.

Binder GVGGWRYGSFPSFSSQTRS [F431] has a Kd [3] of 1.7 nM.

Work on QFYGCLLDLSLGVPSFGWRRRCITA (N-terminal Pox (8-amino-3,6-dioxaoctanoic acid)) [F406] yielded a Kd [3] of 14000 nM.

B4: F254 (peptide)
peptide: ESFYSCLESLVAGPAEKSRGQWEGCR[AEEA][AEEA]GYSWLRDVLMEKQAQLKREGSVGRQE
modifications: cysteine pairing not given here
notes: 111 conjugated by POX
Work on B4 yielded a Kd [3] of 82000 nM.

ETFYKCLASVLTGSTQTKRRPWEGCREE [F229] gave a Kd [2] of 37000 nM.

TFYSCLASLLTGPREQNRGAWERCRR [F142] showed a Kd [2] of 40 nM.

FFYRCLSRLLGGQLGSRLGLSCIGD [F139] was tested, and the Kd [2] was 8000 nM.

— US20110039779A1 (published 2011)
